Measured values reported in publication PMC10338859.

Columns and labels:
[1] = system: GR20, poly(GR) dipeptide repeat peptide; assay: BLI; conditions: apparent Kd, 1:1 equilibrium fit; BLI: 10 mM Tris-HCl, 1 mM disodium EDTA, pH 8.0, 150 mM NaCl, 0.1 mg/ml BSA, 0.01% Tween-20, 25 C; RNA on streptavidin …
[2] = system: PR20, poly(PR) dipeptide repeat peptide; assay: BLI; conditions: apparent Kd, 1:1 equilibrium fit; BLI: 10 mM Tris-HCl, 1 mM disodium EDTA, pH 8.0, 150 mM NaCl, 0.1 mg/ml BSA, 0.01% Tween-20, 25 C; RNA on streptavidin …

Sequence: AUAAUAUAAUAUAAUAUAAUAUAAU [poly(AUAAU) RNA]
- Kd [1]: 6.1 nM
- Kd [2]: 11.1 nM

Sequence: GAGAAGAGAAGAGAAGAGAAGAGAA [poly(GAAGA) RNA]
- Kd [1]: 3.6 nM
- Kd [2]: 2.6 nM
